Target: the molecule itself
Assay: SEC; 100 uL of purified protein (0.9-2.0 mg/mL, a stated concentration for each variant) on a TSK-GEL G3000PWXL column, 20 mM Tris-HCl pH 8.0, 250 mM NaCl, 0.7 mL/min, detection at 280 nm; oligomerization state estimated from the apparent MW by a calibration curve

Protein	stoichiometry N
LptH_β15del (natural protein, As m1 with a 3-residue deletion in strand β15; aggregation prevented concentrations above 0.9 mg/mL; not shown: His6, N-terminal, kept) LPSDREQPIRVQADSAELDDKQGVAVYRGDVVVTQGSTKLTGNTVTLKQDKNGDIEVVTSVGKPAYYEQKPAPDKDVTKAYGLTIQYFVTQNRVVLIDQAKVIQEGNTFEGEKIVYDTQRQIGRATGSQVTSPRPRIDMVIQPKKKAQ	2
wild-type LptH (natural protein, Pseudomonas aeruginosa, UniProt Q9HVV7 25-175, looked up, Cloned NdeI/HindIII into pET28b; the vector's linker between the His tag and the protein is not described; no tag removal is described; also called LptH6His; PA4460; not shown: His6, N-terminal, kept) LPSDREQPIRVQADSAELDDKQGVAVYRGDVVVTQGSTKLTGNTVTLKQDKNGDIEVVTSVGKPAYYEQKPAPDKDVTKAYGLTIQYFVTQNRVVLIDQAKVIQEGNTFEGEKIVYDTQRQIVNAGRATGSQVTSPRPRIDMVIQPKKKAQ	2
LptH_β15mut (natural protein, not shown: His6, N-terminal, kept) LPSDREQPIRVQADSAELDDKQGVAVYRGDVVVTQGSTKLTGNTVTLKQDKNGDIEVVTSVGKPAYYEQKPAPDKDVTKAYGLTIQYFVTQNRVVLIDQAKVIQEGNTFEGEKIVYDTQRQIEPDGRATGSQVTSPRPRIDMVIQPKKKAQ	2
